In test [1] the target is basic fibroblast growth factor (bFGF, FGF-2) (UniProt P09038). As to the kind of experiment: equilibrium or kinetic binding, not said which.
The target in test [2] is transforming growth factor-β1 (TGF-β1) (UniProt P01137). As to the kind of experiment: equilibrium or kinetic binding, not said which.
For test [3], the target named is vascular endothelial growth factor A (VEGF-A) (UniProt P15692). As to the kind of experiment: binding assay, method not restated.
Test [4] addresses platelet-derived growth factor-BB (PDGF-BB) (UniProt P01127). Description: binding assay, method not restated.
Test [5] deals with basic fibroblast growth factor (bFGF, FGF-2) (UniProt P09038). Description: binding assay, method not restated.
Test [6] deals with transforming growth factor-β1 (TGF-β1) (UniProt P01137). Description: binding assay, method not restated.
The target in test [7] is platelet-derived growth factor-BB (PDGF-BB) (UniProt P01127). As to the kind of experiment: equilibrium binding.
Chain of platelet-derived growth factor-BB (PDGF-BB) (P01127 82-190 limits assumed): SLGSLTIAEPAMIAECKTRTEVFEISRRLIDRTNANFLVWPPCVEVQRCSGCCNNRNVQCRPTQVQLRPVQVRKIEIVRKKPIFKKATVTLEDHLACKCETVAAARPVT

Chain of transforming growth factor-β1 (TGF-β1) (P01137 279-390 limits assumed): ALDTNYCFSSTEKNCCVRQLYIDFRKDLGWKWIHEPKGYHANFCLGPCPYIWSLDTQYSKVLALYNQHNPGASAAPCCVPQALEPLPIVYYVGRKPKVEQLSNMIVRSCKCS
Chain of basic fibroblast growth factor (bFGF, FGF-2) (P09038 143-288 limits assumed): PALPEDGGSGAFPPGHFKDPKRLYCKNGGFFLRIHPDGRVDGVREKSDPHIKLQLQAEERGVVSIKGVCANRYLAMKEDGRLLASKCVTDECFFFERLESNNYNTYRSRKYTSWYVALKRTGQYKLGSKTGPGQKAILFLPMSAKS
Chain of vascular endothelial growth factor A (VEGF-A) (P15692 other isoform, or with tags, fused parts or gaps limits assumed): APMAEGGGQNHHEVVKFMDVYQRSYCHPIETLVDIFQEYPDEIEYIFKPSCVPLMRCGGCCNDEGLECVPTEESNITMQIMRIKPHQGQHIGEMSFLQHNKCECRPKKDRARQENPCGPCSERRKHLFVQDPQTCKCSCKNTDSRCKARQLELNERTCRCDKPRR

In the case of “IIICS, variably-spliced domain of fibronectin (from UniProt P02751 2083-2202)”, the Kd (in general, the equilibrium constant for the complex coming apart) in test [1] came to 58 nM; in test [2] it was 74 nM; in test [3], 100 nM; in test [4], 100 nM; in test [5] it was 100 nM; in test [6], 100 nM. The same substance registered a Kd in test [7] of 350 nM.

The values above are taken from patent publication US8691944.
